Experiments:
[1] = target: T1, human LAG-3 on the cell surface (human, UniProt P18627 23-525); experiment: flow cytometry, soluble scFv supernatant on activated human CD4+ T cells, anti-His-PE
T1 construct: whole, on cells; also called cells expressing the human LAG-3
T1 sequence (looked up): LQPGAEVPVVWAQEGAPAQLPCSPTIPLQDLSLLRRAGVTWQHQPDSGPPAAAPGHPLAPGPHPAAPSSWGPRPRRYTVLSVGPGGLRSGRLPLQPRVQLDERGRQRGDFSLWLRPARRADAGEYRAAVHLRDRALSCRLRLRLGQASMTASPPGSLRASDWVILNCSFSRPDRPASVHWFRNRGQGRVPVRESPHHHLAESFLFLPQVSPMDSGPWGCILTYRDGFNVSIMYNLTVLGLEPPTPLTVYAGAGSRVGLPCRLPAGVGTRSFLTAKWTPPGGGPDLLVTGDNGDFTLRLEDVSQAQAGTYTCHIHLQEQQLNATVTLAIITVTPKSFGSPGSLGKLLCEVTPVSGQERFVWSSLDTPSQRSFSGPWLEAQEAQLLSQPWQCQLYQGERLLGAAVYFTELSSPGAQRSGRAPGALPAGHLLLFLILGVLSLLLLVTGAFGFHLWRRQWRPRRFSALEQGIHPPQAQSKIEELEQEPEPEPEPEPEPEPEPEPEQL

[2] = target: T2, human LAG-3-6*His tag recombinant fusion protein (human, UniProt P18627 23-450, biotin-labelled in panning and in Example 9); experiment: ELISA, human LAG-3-6*His coated at 1 µg/ml, IgG4 titrated, anti-hIgG HRP
T2 construct: Bought protein; also called hLAG-3-6*his tag recombinant protein; human LAG-3-his tag recombinant fusion protein
T2 sequence: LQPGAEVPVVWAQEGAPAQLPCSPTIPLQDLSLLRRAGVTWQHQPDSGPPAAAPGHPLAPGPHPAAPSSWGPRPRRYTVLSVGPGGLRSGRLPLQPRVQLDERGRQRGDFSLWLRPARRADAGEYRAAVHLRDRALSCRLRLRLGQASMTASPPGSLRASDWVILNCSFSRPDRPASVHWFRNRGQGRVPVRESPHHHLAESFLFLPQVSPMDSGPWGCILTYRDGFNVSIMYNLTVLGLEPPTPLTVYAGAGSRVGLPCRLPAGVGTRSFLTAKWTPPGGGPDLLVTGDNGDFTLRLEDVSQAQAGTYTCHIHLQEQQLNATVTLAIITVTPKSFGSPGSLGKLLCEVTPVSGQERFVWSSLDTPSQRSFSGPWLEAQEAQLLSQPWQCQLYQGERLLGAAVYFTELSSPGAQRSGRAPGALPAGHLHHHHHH

| Binder | binding result [1] | EC50 [2] |
| --- | --- | --- |
| scFv single chain antibody 11454 (scFv, From phagemid pCLS1.0, which adds a C-terminal Myc-His tag) scFv: EVQLLQSGGGLVQPGGSLRLSCAASGFTFSSYEMNWVRQAPGKGLEWVSYISSSGSTIYYADSVKGRFTISRDNAKNSLYLQMNSLRAEDTAVYYCARVGLLDAFDIWGQGTMVTVSSGGGGSGGGGSGGGGSGGGGASQSVLTQPPSVSAAPGQKVTISCSGSSSNIGNNYVSWYQLIPEKAPRLLIYDDDKRPSGIPDRFSGSQSGTSATLGITGLQTGDEADYFCGTWDNSLSGAVFGGGTQLIIL | binds |  |
| scFv single chain antibody 11451 (scFv, From phagemid pCLS1.0, which adds a C-terminal Myc-His tag) scFv: QVQLQESGPGLVKPSETLSLTCTVSGGSISSGGYYWGWIRQPPGKGLEWIGSIYYSGRTYYNPSLKSRVTISVDTSRNQFSLKLSSLTAADTAVYYCARTGGGAYGFDYWGQGTLVTVSSGGGGSGGGGSGGGGSGGGGASQPVLTQPHSVSESPGKTVTISCTRSSGNIASNYVQWYQKRPGSPPTTVIYEDNQRPSGVPDRFSASIDSSSNSASLTISGLRTEDEADYYCQSYDTILGYVFGGGTQLTAL | binds |  |
| IgG4 monoclonal antibody 11487 (antibody, V domains shown, IgG4, lambda) VH: QVQLVESGGGLVQPGRSLRLSCVASGFTFDDHAMHWVRQTPEKGLEWVSGISWNGGDIRYADSVKGRFIISRDNAKNSLHLQMNSLRGEDTAVYYCARDGGYSVLRAFDIWGQGTTVTVSS VL: QSVLTQPPSVSGAPGQRVTISCTGSSSNIGAGYDVHWYQQLPGTAPKLLIYGNSNRPSGVPDRFSGSKSGTSASLAITGLQAEDEADYYCQSYDSSLSGWVFGGGTQLIILG |  | 3.35 µg/mL |
| scFv single chain antibody 11452 (scFv, From phagemid pCLS1.0, which adds a C-terminal Myc-His tag) scFv: EVQLLESGAEVKKPGASVKVSCKASGYTFTSYGISWVRQAPGQGLEWMGWISAYNGNTNYAQKLQGRVTMTTDTSTSTAYMELRSLRSDDTAVYYCARDGWWELLRPDDAFDIWGQGTTVTVSSGGGGSGGGGSGGGGSGGGGASQLVLTQSPSVSVSPGQTASITCSGDKLGDKYAYWYQQKPGQAPVLVIYYDSDRPSGIPERFSGSNSGNTATLTISRVEAGDEADYYCQVWDSSSDQVVFGGGTQLTVL | binds |  |
| scFv single chain antibody 11449 (scFv, From phagemid pCLS1.0, which adds a C-terminal Myc-His tag) scFv: QVQLVQSGAEVKKPGASVKVSCKASGYTFTSYGISWVRQAPGQGLEWMGWISAYNGNTNYAQKLQGRVTMTTDTSTSTAYMELRSLRSDDTAVYYCARDEGANWGDAFDIWGQGTMVTVSSGGGGSGGGGSGGGGSGGGGASQLVLTQSPSASGTPGQRVTISCSGSSSNIGNNAVNWYQQLPGTAPKILIYSNNQRPSGVPDRFSGSKSGASASLAISGLQSEDESDYYCAAWDDSLNAVVFSGGTELTVL | binds |  |
| IgG4 monoclonal antibody 11446 (antibody, V domains shown, IgG4, kappa) VH: EVQLVESGGGVVQPGRSLRLSCAASGFTFSNYAMHWVRQAPGKGLEWVAVISYDGSDKYYADSVKGRFTISRDNSKNTLYLQMKSLRAEDTAVYYCARSIGFLESDAFDIWGQGTTVTVSS VL: DIVLTQSPSSLSASVGDRVTITCQASHGISNFLNWYQQKPGKAPKLLIYDASTLETGVPSRFSGSGSGTDFRFTISSLQPEDIATYYCQQFDNLPITFGQGTRLEIK |  | 85.6 µg/mL |
| IgG4 monoclonal antibody 11455 (antibody, V domains shown, IgG4, kappa) VH: EVHLVESGGGVVQPGRSLRLSCAASGFTFSNYAMHWVRQAPGKGLEWVAVISYDGNNQYYADSVKGRFTISRDNSKNTLYLQMNSLRAEDTAVFYCARSIGFLESDAFDIWGQGTTVTVSS VL: EIVLMQSPGTLSLSPGERATLSCRASQSFSDGSLAWYQQKPGQPPRLVIYDASKRATGIPDRFSGSRSGTEFTLTISSLQSEDFAVYSCQQYYNWPPTFGQGTRLEIK |  | 83.1 µg/mL |
| scFv single chain antibody 11455 (scFv, From phagemid pCLS1.0, which adds a C-terminal Myc-His tag) scFv: EVHLVESGGGVVQPGRSLRLSCAASGFTFSNYAMHWVRQAPGKGLEWVAVISYDGNNQYYADSVKGRFTISRDNSKNTLYLQMNSLRAEDTAVFYCARSIGFLESDAFDIWGQGTTVTVSSGGGGSGGGGSGGGGSGGGGASEIVLMQSPGTLSLSPGERATLSCRASQSFSDGSLAWYQQKPGQPPRLVIYDASKRATGIPDRFSGSRSGTEFTLTISSLQSEDFAVYSCQQYYNWPPTFGQGTRLEIK | binds |  |
| IgG4 monoclonal antibody 11471 (antibody, V domains shown, IgG4, kappa) VH: RVRLQESGPGLVKPSQTLSLTCTVSGGSISSSNWWSWVRQPPGKGLEWIGEIYHSGSTNYNPSLKSRVTISVDKSKNQFSLKLSSVTAADTAVYYCARDRAIRDAFDIWGQGTTVTVSS VL: not shown |  | 22.3 µg/mL |
| scFv single chain antibody 11507 (scFv, From phagemid pCLS1.0, which adds a C-terminal Myc-His tag) scFv: QVQLQESGPGLVKPSETLSLTCTVSGYSISSGYYWGWIRQPPGKGLEWIGSIYHSGSTYYNPSLKSRVTISVDTSKNQFSLKLSSVTAADTAVYYCARDLQDWFDPWGQGTLVTVSSGGGGSGGGGSGGGGSGGGGASLAVLTHAPSASGTPGQRVTISCSGSKSNIGSNSVNWYQHLPGTAPKLLIHTNDQRPSGVPDRFAGSKSGTSASLTISGLRPEDEADYYCATWDDSMSGPVFGGGTELTVL | binds |  |
| scFv single chain antibody 11506 (scFv, From phagemid pCLS1.0, which adds a C-terminal Myc-His tag) scFv: QLQLQESGPGLVKSSQTLSLTCSVSGDSISSGKYYWTWIRQPAGKGLEWLGRIHSSGFAQYNPSLKGRLTISVDTRKNEFSLKMTSVTAADTAVYYCARGGWNDPFDSWGQGTLVTVSSGGGGSGGGGSGGGGSGGGGASDIQMTQSPDSLAVSLGERATINCKSSQSVLYSSNNKNYLAWYQQKPGQPPKLLIYWASTRESGVPDRFSVSGSGTDFTLTISSLHAEDVAVYYCQQYYSTPITFGPGTKLEIK | binds |  |
| scFv single chain antibody 11487 (scFv, From phagemid pCLS1.0, which adds a C-terminal Myc-His tag) scFv: QVQLVESGGGLVQPGRSLRLSCVASGFTFDDHAMHWVRQTPEKGLEWVSGISWNGGDIRYADSVKGRFIISRDNAKNSLHLQMNSLRGEDTAVYYCARDGGYSVLRAFDIWGQGTTVTVSSGGGGSGGGGSGGGGSGGGGASQSVLTQPPSVSGAPGQRVTISCTGSSSNIGAGYDVHWYQQLPGTAPKLLIYGNSNRPSGVPDRFSGSKSGTSASLAITGLQAEDEADYYCQSYDSSLSGWVFGGGTQLIIL | binds |  |
| scFv single chain antibody 11458 (scFv, From phagemid pCLS1.0, which adds a C-terminal Myc-His tag) scFv: RVRLQESGPGLVKPSETLSLTCTVSGGSISSSSYYWGWIRQPPGKGLEWIGSIYYSGSTYYNPSLKSRVTISVDTSKNQFSLKLSSVTAADTAVYYCAREYSGYDGAYVGYWGQGTLVTVSSGGGGSGGGGSGGGGSGGGGASQSVLTQPPSVSGAPGQRVTISCTGSNSNIRAGYDVHWYQQLPGTVPKLLIYGNSNRPSGVPDRFSGSKSGTSASLAISGLQSEDEGNYFCATWDDSLWGWVFGAGTELTVL | binds |  |
| IgG4 monoclonal antibody 11454 (antibody, V domains shown, IgG4, lambda) VH: EVQLLQSGGGLVQPGGSLRLSCAASGFTFSSYEMNWVRQAPGKGLEWVSYISSSGSTIYYADSVKGRFTISRDNAKNSLYLQMNSLRAEDTAVYYCARVGLLDAFDIWGQGTMVTVSS VL: QSVLTQPPSVSAAPGQKVTISCSGSSSNIGNNYVSWYQLIPEKAPRLLIYDDDKRPSGIPDRFSGSQSGTSATLGITGLQTGDEADYFCGTWDNSLSGAVFGGGTQLIILG |  | 85.8 µg/mL |
| scFv single chain antibody 11465 (scFv, From phagemid pCLS1.0, which adds a C-terminal Myc-His tag) scFv: QVQLVQSGAEVKKPGSSVKVSCKTSGGTFSNYAINWVRQAPGQGLEWMGVIIPMFGPANYVQKFQGRVTITADETTSTAYMELSSLRSEDTAIYYCARDLAPAGFYGMDVWGQGTTVTVSSGGGGSGGGGSGGGGSGGGGASDIVLTQSPSSVSASVGDRVTITCRASQGISNWLAWYQQKPGKAPKLLIYAASSLQSGVPSRFSGSRSGTDFTLTISSLQPEDFATYYCQQARNFPFTFGQGTRLEIK | binds |  |
| scFv single chain antibody 11446 (scFv, From phagemid pCLS1.0, which adds a C-terminal Myc-His tag) scFv: EVQLVESGGGVVQPGRSLRLSCAASGFTFSNYAMHWVRQAPGKGLEWVAVISYDGSDKYYADSVKGRFTISRDNSKNTLYLQMKSLRAEDTAVYYCARSIGFLESDAFDIWGQGTTVTVSSGGGGSGGGGSGGGGSGGGGASDIVLTQSPSSLSASVGDRVTITCQASHGISNFLNWYQQKPGKAPKLLIYDASTLETGVPSRFSGSGSGTDFRFTISSLQPEDIATYYCQQFDNLPITFGQGTRLEIK | binds |  |
